Where two headings read alike, the source gives them in different places.
Legend:
SARS-CoV Spike protein [1] = molecular target: T1, SARS-CoV Spike protein (SARS-CoV, UniProt P59594 14-1195)
[2] = molecular target: Spike of live SARS-CoV-2 WT virus (SARS-CoV-2, UniProt P0DTC2 14-1273); experiment: cell-based or functional assay
[3] = molecular target: T2, MERS-CoV S2 (Sino Biological, 40070-V08) (MERS-CoV, UniProt K9N5Q8 726-1296); experiment: SPR/BLI, method not told apart
T2 sequence: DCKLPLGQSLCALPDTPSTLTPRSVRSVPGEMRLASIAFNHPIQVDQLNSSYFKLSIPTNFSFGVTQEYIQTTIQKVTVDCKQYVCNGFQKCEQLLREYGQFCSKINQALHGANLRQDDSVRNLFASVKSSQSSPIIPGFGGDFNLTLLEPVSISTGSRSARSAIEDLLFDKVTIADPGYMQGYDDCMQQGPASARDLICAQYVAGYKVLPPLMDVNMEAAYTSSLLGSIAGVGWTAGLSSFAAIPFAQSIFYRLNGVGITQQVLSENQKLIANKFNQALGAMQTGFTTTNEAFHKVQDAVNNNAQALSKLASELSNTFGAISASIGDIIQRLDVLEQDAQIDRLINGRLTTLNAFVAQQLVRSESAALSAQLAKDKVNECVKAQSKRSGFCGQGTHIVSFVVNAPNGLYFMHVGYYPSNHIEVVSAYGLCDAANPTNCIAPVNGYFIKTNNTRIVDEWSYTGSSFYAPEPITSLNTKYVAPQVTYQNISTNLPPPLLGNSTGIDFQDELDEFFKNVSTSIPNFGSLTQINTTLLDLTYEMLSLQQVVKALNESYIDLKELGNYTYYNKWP

SARS-CoV Spike protein [4] = molecular target: T1, SARS-CoV Spike protein; experiment: SPR/BLI, method not told apart
[5] = molecular target: T3, SARS-CoV-2 S1 (40591-V08H3, Sino Biological) (SARS-CoV-2, UniProt P0DTC2 16-685); experiment: ELISA, hmAb at 10 and 1 ug/ml in duplicate; AUC
T3 construct: domain: S1

[6] = molecular target: T4, SARS-CoV-2 S2 (40590-V08B, Sino Biological) (SARS-CoV-2, UniProt P0DTC2 686-1213); experiment: ELISA, hmAb at 10 and 1 ug/ml in duplicate; AUC
T4 construct: domain: S2

[7] = molecular target: T5, SARS-CoV-2 S1+S2 (40589-V08B1, Sino Biological) (SARS-CoV-2, UniProt P0DTC2 16-1213); experiment: ELISA, hmAb at 10 and 1 ug/ml in duplicate; AUC
[8] = molecular target: T3, SARS-CoV-2 S1 (40591-V08H3, Sino …); experiment: ELISA on coated protein, anti-human IgG-HRP; AUC of the OD
[9] = molecular target: T4, SARS-CoV-2 S2 (40590-V08B, Sino …); experiment: as above
[10] = molecular target: T5, SARS-CoV-2 S1+S2 (40589-V08B1, Sino …); experiment: as above
[11] = molecular target: T6, OC43 S2 (40607-V08B1, Sino Biological) (HCoV-OC43, UniProt P36334 759-1297); experiment: ELISA titration of 1249A8 on coated Spike proteins, mean Abs at 450 nm
T6 construct: domain: S2
T6 sequence: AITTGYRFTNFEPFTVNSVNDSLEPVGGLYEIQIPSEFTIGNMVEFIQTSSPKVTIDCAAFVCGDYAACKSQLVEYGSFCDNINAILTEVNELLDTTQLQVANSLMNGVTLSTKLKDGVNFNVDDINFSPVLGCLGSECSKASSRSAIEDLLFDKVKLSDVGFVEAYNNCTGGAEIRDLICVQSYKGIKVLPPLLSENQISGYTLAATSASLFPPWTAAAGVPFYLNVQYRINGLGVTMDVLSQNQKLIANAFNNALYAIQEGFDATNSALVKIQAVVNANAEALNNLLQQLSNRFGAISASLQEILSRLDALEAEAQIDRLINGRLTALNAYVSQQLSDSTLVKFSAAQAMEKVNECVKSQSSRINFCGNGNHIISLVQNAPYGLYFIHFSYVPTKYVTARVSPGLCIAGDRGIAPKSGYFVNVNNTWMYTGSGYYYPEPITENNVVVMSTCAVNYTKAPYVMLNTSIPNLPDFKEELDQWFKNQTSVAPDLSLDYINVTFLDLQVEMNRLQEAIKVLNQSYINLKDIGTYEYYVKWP

[12] = molecular target: T2, MERS-CoV S2 (Sino Biological, 40070-V08); experiment: BLI, mAb on anti-human Fc biosensor, MERS Spike protein in solution

B1: 1249A8 (antibody, V domains shown)
VH: QVQLVQSGAEVKKPGASMKVSCKASGFTFTDYYMHWVRQAPRQGLEWMGLINPSGSGTAYAQNFQGRVTLARDTSTSTLYMEMGSLTSDDTAVYYCARMDSSGSYDHWGQGTLVTVSS
VL: ETTLTQSPGTLSLSPGDRATLSCRASQTIRISYLAWYQQKPGQAPRLLVYGPSIRATGIPDRFSARGSGTDFTLTISRLEPEDFAVYYCQHYGSSPPRYTFGQGTKLEIK
For B1, the Kd (SARS-CoV Spike protein [1]) was 3.15 nM, the “Neutralization IC50 (µg/ml), Live Virus WT” value [2] was 1.77 µg/mL and the Kd [3] was 0.58 nM. For the same binder, the Kd (SARS-CoV Spike protein [4]) was 3.2 nM, the “Binding AUC” value [5] was 1.4 and the binding result [5] was “no binding (tested: 10 ug/ml)”. The “Binding AUC” value [6] was 28.2, the “Binding AUC” value [7] was 24.8 and the “Binding AUC” value [8] was 1.4. The “Binding AUC” value [9] was 28.2, the “Binding AUC” value [10] was 24.8 and the binding result [11] was “binds”. The Kd [12] was 0.56 nM.

From patent US20240270828A1 (UAB RESEARCH FOUNDATION, published 2024)
